In PMC7261172, “Peptides containing the PCNA interacting motif APIM bind to the β-clamp and inhibit bacterial growth and mutagenesis” (Nucleic Acids Research, 2020):

Experiments:
Conditions in all cases: both partners purified
[1] = target: T1, E. coli β-clamp labelled with RED-maleimide dye (MST) (E. coli, UniProt P0A988 1-366, RED-maleimide fluorescent dye (RED-Maleimide Labelling Kit, NanoTemper); site not stated); experiment: MST; β-clamp labelled with RED-maleimide (3 nM stock, diluted 1:1 with ligand); peptides in 16 1:1 dilutions from 500 μM to 15 nM; 50 mM Tris-HCl pH 7.5, 150 mM NaCl, 10 mM MgCl2, 2% fetal bovine serum; Monolith NT.115; change of fluorescence analysed
T1 construct: β-clamp (β subunit of DNA polymerase III), product of the dnaN gene, E. coli; it may or may not be the same His-tagged pET-16b construct as m1; also called fluorescent labeled β-clamp; Purified E.coli β-clamp; source: labelled with the RED-Maleimide Labelling Kit

[2] = target: T2, E. coli β-clamp, wild type, His-tagged (E. coli, UniProt P0A988 1-366); experiment: NMR titration; 1D 1H NMR of the peptide with sub-stoichiometric β-clamp (100 or 50 μM peptide added 5 or 20 μM β-clamp); line broadening or loss of signal read; 298 K, 20 mM NaH2PO4, 100 mM NaCl, pH 7.4
T2 construct: β-clamp (β subunit of DNA polymerase III), product of the dnaN gene, E. coli; no cleavage is described; also called WT β-clamp; DNA sliding clamp; source: for NMR HisTrap FF and Superdex 200 SEC

[3] = target: T3, E. coli β-clamp H148K, His-tagged (E. coli, UniProt P0A988 1-366, H148K); experiment: SPR; WT or mutant β-clamp immobilised by amine coupling on CM5 (about 2000 RU); octamer peptides at 4-128 μM, single-cycle; 25°C, 30 μl/min; PBS P+ (20 mM phosphate pH 7.4, 3 mM KCl, 137 mM NaCl, 0.05% P20); sensorgrams normalised to the immobilised level
T3 construct: β-clamp, product of the dnaN gene, E. coli, with H148K; Made by site-directed mutagenesis of the plasmid of m1

[4] = target: T4, E. coli β-clamp V151A, His-tagged (E. coli, UniProt P0A988 1-366, V151A); experiment: as above
T4 construct: β-clamp, product of the dnaN gene, E. coli, with V151A; Made by site-directed mutagenesis of the plasmid of m1

[5] = target: T5, E. coli β-clamp P242D, His-tagged (E. coli, UniProt P0A988 1-366, P242D); experiment: as above
T5 construct: β-clamp, product of the dnaN gene, E. coli, with P242D; Made by site-directed mutagenesis of the plasmid of m1

[6] = target: T6, E. coli β-clamp M362D, His-tagged (E. coli, UniProt P0A988 1-366, M362D); experiment: as above
T6 construct: β-clamp, product of the dnaN gene, E. coli, with M362D; Made by site-directed mutagenesis of the plasmid of m1

[7] = target: T7, E. coli β-clamp P363D, His-tagged (E. coli, UniProt P0A988 1-366, P363D); experiment: as above
T7 construct: β-clamp, product of the dnaN gene, E. coli, with P363D; Made by site-directed mutagenesis of the plasmid of m1

B1: Cell penetrating APIM-peptide RWLVK (Ac-MD-RWLVK-WKKKRKI-RRRRRRRRRRR) (peptide)
peptide: Ac-MDRWLVKWKKKRKIRRRRRRRRRRR-NH2
modifications: also: TFA salt
notes: APIM motif RWLVK, linker WKKKRKI, cell penetrating R11; TFA salt, >90% pure; also called RWLVK-peptide; cell penetrating RWLVK-peptide; source: synthetic peptide; bought: Innovagen, Sweden
Kd [1]: < 50 µM

B2: Cell penetrating peptide with mutated APIM RALVK (Ac-MD-RALVK-WKKKRKI-RRRRRRRRRRR) (peptide)
peptide: Ac-MDRALVKWKKKRKIRRRRRRRRRRR-NH2
modifications: also: TFA salt
notes: mutated APIM RALVK, linker WKKKRKI, cell penetrating R11; TFA salt, >90% pure; also called RALVK-peptide; source: synthetic peptide; bought: Innovagen, Sweden
Kd [1]: > 750 µM

B3: Octamer APIM peptide RWLVK (Ac-MDRWLVKW) (peptide)
peptide: Ac-MDRWLVKW-NH2
modifications: also: TFA salt
notes: APIM motif RWLVK without the cell penetrating part; also called octamer peptide containing RWLVK; source: synthetic peptide; bought: Innovagen, Sweden
binding result [2]: binds | binding result [3]: binds | binding result [4]: binds | binding result [5]: binds | binding result [6]: binds | binding result [7]: binds

B4: Pol III β-clamp binding peptide (Ac-EQVELEFD) (peptide)
peptide: Ac-EQVELEFD-NH2
modifications: also: TFA salt
notes: also called Pol III peptide; source: synthetic peptide; bought: Innovagen, Sweden
binding result [2]: binds

B5: Cell penetrating APIM-peptide RFSLK (Ac-MD-RFSLK-WKKKRKI-RRRRRRRRRRR) (peptide)
peptide: Ac-MDRFSLKWKKKRKIRRRRRRRRRRR-NH2
modifications: also: TFA salt
notes: APIM motif RFSLK, linker WKKKRKI, cell penetrating R11; TFA salt, >90% pure; also called RFSLK-peptide; source: synthetic peptide; bought: Innovagen, Sweden
Kd [1]: < 50 µM
